# Measurements taken from FireProtDB (doi:10.1002/prot.1147).
# B1: Lysozyme C, P61626 (parent)
# chain: MKALIVLGLVLLSVTVQGKVFERCELARTLKRLGMDGYRGISLANWMCLAKWESGYNTRATNYNAGDRSTDYGIFQINSRYWCNDGKTPGAVNACHLSCSALLQDNIADAVACAKRVVRDPQGIRAWVAWRNRCQNRDVRQYVQGCGV
# Variants of: B1
# Conditions: Homo sapiens; pH 2.3; Thermal; DSC; Gly-HCl 0.05 M; reversible: yes; structure 1LZ1; whole UniProt chain shown
Variant,Tm,unfolding enthalpy (calorimetric)
MKALIVLGLVLLSVTVQGKVFERCELARTLKRLGMDGYRGISLANWMCLAKWESGYNTRATNYNAGDRSTDYGIFQINSRYWCNDGKTPGAVNACHLSCSALLQDNIADAVACAKRVVRDPQAIRAWVAWRNRCQNRDVRQYVQGCGV [G123A],56.1 °C,90.8 kcal/mol

# Same assay, conditions: Homo sapiens; pH 2.65; Thermal; DSC; Gly-HCl 0.05 M; reversible: yes; structure 1LZ1; whole UniProt chain shown
Variant,Tm,unfolding enthalpy (calorimetric)
MKALIVLGLVLLSVTVQGKVFERCELARTLKRLGMDGYRGISLANWMCLAKWESGYNTRATNYNAGDRSTDYGIFQINSRYWCNDGKTPGAVNACHLSCSALLQDNIADAVACAKRVVRDPQAIRAWVAWRNRCQNRDVRQYVQGCGV [G123A],61.3 °C,97.5 kcal/mol

# Same assay, conditions: Homo sapiens; pH 2.7; 64.9 °C; Thermal; DSC; Gly-HCl 0.05 M; reversible: yes; structure 1LZ1; whole UniProt chain shown
Variant,ddG of mutation (higher = less stable),heat capacity change of unfolding
MKALIVLGLVLLSVTVQGKVFERCELARTLKRLGMDGYRGISLANWMCLAKWESGYNTRATNYNAGDRSTDYGIFQINSRYWCNDGKTPGAVNACHLSCSALLQDNIADAVACAKRVVRDPQAIRAWVAWRNRCQNRDVRQYVQGCGV [G123A],0.62 kcal/mol,1.36 kcal/mol/K
MKALIVLGLVLLSVTVQGKVFERCELARTLKRLGMDGYRGISLANWMCLAKWESGYNTRATNYNAGDRSTDYGIFQINSRYWCNDGKTPAAVNACHLSCSALLQDNIADAVACAKRVVRDPQGIRAWVAWRNRCQNRDVRQYVQGCGV [G90A],0.36 kcal/mol,1.43 kcal/mol/K
MKALIVLGLVLLSVTVQGKVFERCELARTLKRLGMDGYRGISLANWMCLAKWESGYNTRATNYNAADRSTDYGIFQINSRYWCNDGKTPGAVNACHLSCSALLQDNIADAVACAKRVVRDPQGIRAWVAWRNRCQNRDVRQYVQGCGV [G66A],-0.45 kcal/mol,1.6 kcal/mol/K

# Same assay, conditions: Homo sapiens; pH 2.7; Thermal; DSC; Gly-HCl 0.05 M; reversible: yes; structure 1LZ1; whole UniProt chain shown
Variant,Tm,"change of melting temperature, mutant - wild type (higher = more stable)",heat capacity change of unfolding,unfolding enthalpy (calorimetric)
MKALIVLGLVLLSVTVQGKVFERCELARTLKRLGMDGYRGISLANWMCLAKWESGYNTRATNYNAGDRSTDYGIFQINSRYWCNDGKTPGAVNACHLSCSALLQDNIADAVACAKRVVRDPQAIRAWVAWRNRCQNRDVRQYVQGCGV [G123A],62.8 °C,-2.1 °C,1.36 kcal/mol/K,103 kcal/mol
MKALIVLGLVLLSVTVQGKVFERCELARTLKRLGMDGYRGISLANWMCLAKWESGYNTRATNYNAGDRSTDYGIFQINSRYWCNDGKTPAAVNACHLSCSALLQDNIADAVACAKRVVRDPQGIRAWVAWRNRCQNRDVRQYVQGCGV [G90A],63.8 °C,-1.1 °C,1.43 kcal/mol/K,109 kcal/mol
MKALIVLGLVLLSVTVQGKVFERCELARTLKRLGMDGYRGISLANWMCLAKWESAYNTRATNYNAGDRSTDYGIFQINSRYWCNDGKTPGAVNACHLSCSALLQDNIADAVACAKRVVRDPQGIRAWVAWRNRCQNRDVRQYVQGCGV [G55A],64 °C,-0.9 °C,1.53 kcal/mol/K,108 kcal/mol
MKALIVLGLVLLSVTVQGKVFERCELARTLKRLGMDGYRGISLANWMCLAKWESGYNTRATNYNAADRSTDYGIFQINSRYWCNDGKTPGAVNACHLSCSALLQDNIADAVACAKRVVRDPQGIRAWVAWRNRCQNRDVRQYVQGCGV [G66A],66.4 °C,1.5 °C,1.6 kcal/mol/K,101 kcal/mol

# Same assay, conditions: Homo sapiens; pH 3.2; Thermal; DSC; Gly-HCl 0.05 M; reversible: yes; structure 1LZ1; whole UniProt chain shown
Variant,Tm,unfolding enthalpy (calorimetric)
MKALIVLGLVLLSVTVQGKVFERCELARTLKRLGMDGYRGISLANWMCLAKWESGYNTRATNYNAGDRSTDYGIFQINSRYWCNDGKTPGAVNACHLSCSALLQDNIADAVACAKRVVRDPQAIRAWVAWRNRCQNRDVRQYVQGCGV [G123A],71.8 °C,112 kcal/mol
MKALIVLGLVLLSVTVQGKVFERCELARTLKRLGMDGYRGISLANWMCLAKWESGYNTRATNYNAADRSTDYGIFQINSRYWCNDGKTPGAVNACHLSCSALLQDNIADAVACAKRVVRDPQGIRAWVAWRNRCQNRDVRQYVQGCGV [G66A],75.1 °C,117 kcal/mol

# Same assay, conditions: Homo sapiens; pH 2.2; Thermal; DSC; Gly-HCl 0.05 M; reversible: yes; structure 1LZ1; whole UniProt chain shown
Variant,Tm,unfolding enthalpy (calorimetric)
MKALIVLGLVLLSVTVQGKVFERCELARTLKRLGMDGYRGISLANWMCLAKWESGYNTRATNYNAGDRSTDYGIFQINSRYWCNDGKTPGAVNACHLSCSALLQDNIADAVACAKRVVRDPQGIRAWVAWRNRCQNRDVRQYVQACGV [G145A],54.6 °C,94.2 kcal/mol

# Same assay, conditions: Homo sapiens; pH 2.6; Thermal; DSC; Gly-HCl 0.05 M; reversible: yes; structure 1LZ1; whole UniProt chain shown
Variant,Tm,unfolding enthalpy (calorimetric)
MKALIVLGLVLLSVTVQGKVFERCELARTLKRLGMDGYRGISLANWMCLAKWESGYNTRATNYNAGDRSTDYGIFQINSRYWCNDGKTPGAVNACHLSCSALLQDNIADAVACAKRVVRDPQGIRAWVAWRNRCQNRDVRQYVQACGV [G145A],61.6 °C,104 kcal/mol
MKALIVLGLVLLSVTVQGKVFERCELARTLKRLGMDGYRGISLANWMCLAKWESAYNTRATNYNAGDRSTDYGIFQINSRYWCNDGKTPGAVNACHLSCSALLQDNIADAVACAKRVVRDPQGIRAWVAWRNRCQNRDVRQYVQGCGV [G55A],62.4 °C,104 kcal/mol

# Same assay, conditions: Homo sapiens; pH 3.16; Thermal; DSC; Gly-HCl 0.05 M; reversible: yes; structure 1LZ1; whole UniProt chain shown
Variant,Tm,unfolding enthalpy (calorimetric)
MKALIVLGLVLLSVTVQGKVFERCELARTLKRLGMDGYRGISLANWMCLAKWESGYNTRATNYNAGDRSTDYGIFQINSRYWCNDGKTPGAVNACHLSCSALLQDNIADAVACAKRVVRDPQGIRAWVAWRNRCQNRDVRQYVQACGV [G145A],71.1 °C,118 kcal/mol
MKALIVLGLVLLSVTVQGKVFERCELARTLKRLGMDGYRGISLANWMCLAKWESGYNTRATNYNAGDRSTDYGIFQINSRYWCNDGKTPAAVNACHLSCSALLQDNIADAVACAKRVVRDPQGIRAWVAWRNRCQNRDVRQYVQGCGV [G90A],72.2 °C,120 kcal/mol

# Same assay, conditions: Homo sapiens; pH 2.38; Thermal; DSC; Gly-HCl 0.05 M; reversible: yes; structure 1LZ1; whole UniProt chain shown
Variant,Tm,unfolding enthalpy (calorimetric)
MKALIVLGLVLLSVTVQGKVFERCELARTLKRLGMDGYRGISLANWMCLAKWESGYNTRATNYNAGDRSTDYGIFQINSRYWCNDGKTPAAVNACHLSCSALLQDNIADAVACAKRVVRDPQGIRAWVAWRNRCQNRDVRQYVQGCGV [G90A],58.2 °C,99.9 kcal/mol
MKALIVLGLVLLSVTVQGKVFERCELARTLKRLGMDGYRGISLANWMCLAKWESAYNTRATNYNAGDRSTDYGIFQINSRYWCNDGKTPGAVNACHLSCSALLQDNIADAVACAKRVVRDPQGIRAWVAWRNRCQNRDVRQYVQGCGV [G55A],58.1 °C,97 kcal/mol

# Same assay, conditions: Homo sapiens; pH 2.64; Thermal; DSC; Gly-HCl 0.05 M; reversible: yes; structure 1LZ1; whole UniProt chain shown
Variant,Tm,unfolding enthalpy (calorimetric)
MKALIVLGLVLLSVTVQGKVFERCELARTLKRLGMDGYRGISLANWMCLAKWESGYNTRATNYNAGDRSTDYGIFQINSRYWCNDGKTPAAVNACHLSCSALLQDNIADAVACAKRVVRDPQGIRAWVAWRNRCQNRDVRQYVQGCGV [G90A],62.6 °C,106 kcal/mol

# Same assay, conditions: Homo sapiens; pH 3.18; Thermal; DSC; Gly-HCl 0.05 M; reversible: yes; structure 1LZ1; whole UniProt chain shown
Variant,Tm,unfolding enthalpy (calorimetric)
MKALIVLGLVLLSVTVQGKVFERCELARTLKRLGMDGYRGISLANWMCLAKWESAYNTRATNYNAGDRSTDYGIFQINSRYWCNDGKTPGAVNACHLSCSALLQDNIADAVACAKRVVRDPQGIRAWVAWRNRCQNRDVRQYVQGCGV [G55A],72.4 °C,119 kcal/mol

# Same assay, conditions: Homo sapiens; pH 2.4; Thermal; DSC; Gly-HCl 0.05 M; reversible: yes; structure 1LZ1; whole UniProt chain shown
Variant,Tm,unfolding enthalpy (calorimetric)
MKALIVLGLVLLSVTVQGKVFERCELARTLKRLGMDGYRGISLANWMCLAKWESGYNTRATNYNAADRSTDYGIFQINSRYWCNDGKTPGAVNACHLSCSALLQDNIADAVACAKRVVRDPQGIRAWVAWRNRCQNRDVRQYVQGCGV [G66A],61.1 °C,94.9 kcal/mol

# Same assay, conditions: Homo sapiens; pH 2.68; Thermal; DSC; Gly-HCl 0.05 M; reversible: yes; structure 1LZ1; whole UniProt chain shown
Variant,Tm,unfolding enthalpy (calorimetric)
MKALIVLGLVLLSVTVQGKVFERCELARTLKRLGMDGYRGISLANWMCLAKWESGYNTRATNYNAADRSTDYGIFQINSRYWCNDGKTPGAVNACHLSCSALLQDNIADAVACAKRVVRDPQGIRAWVAWRNRCQNRDVRQYVQGCGV [G66A],66 °C,102 kcal/mol
